{
  "source": "paper PMC12209146",
  "molecular_target": "toxin B (TcdB) from Clostridioides difficile VPI 10,463 (Clostridioides difficile VPI 10,463) (UniProt P18177)",
  "sequence (P18177 whole entry)": "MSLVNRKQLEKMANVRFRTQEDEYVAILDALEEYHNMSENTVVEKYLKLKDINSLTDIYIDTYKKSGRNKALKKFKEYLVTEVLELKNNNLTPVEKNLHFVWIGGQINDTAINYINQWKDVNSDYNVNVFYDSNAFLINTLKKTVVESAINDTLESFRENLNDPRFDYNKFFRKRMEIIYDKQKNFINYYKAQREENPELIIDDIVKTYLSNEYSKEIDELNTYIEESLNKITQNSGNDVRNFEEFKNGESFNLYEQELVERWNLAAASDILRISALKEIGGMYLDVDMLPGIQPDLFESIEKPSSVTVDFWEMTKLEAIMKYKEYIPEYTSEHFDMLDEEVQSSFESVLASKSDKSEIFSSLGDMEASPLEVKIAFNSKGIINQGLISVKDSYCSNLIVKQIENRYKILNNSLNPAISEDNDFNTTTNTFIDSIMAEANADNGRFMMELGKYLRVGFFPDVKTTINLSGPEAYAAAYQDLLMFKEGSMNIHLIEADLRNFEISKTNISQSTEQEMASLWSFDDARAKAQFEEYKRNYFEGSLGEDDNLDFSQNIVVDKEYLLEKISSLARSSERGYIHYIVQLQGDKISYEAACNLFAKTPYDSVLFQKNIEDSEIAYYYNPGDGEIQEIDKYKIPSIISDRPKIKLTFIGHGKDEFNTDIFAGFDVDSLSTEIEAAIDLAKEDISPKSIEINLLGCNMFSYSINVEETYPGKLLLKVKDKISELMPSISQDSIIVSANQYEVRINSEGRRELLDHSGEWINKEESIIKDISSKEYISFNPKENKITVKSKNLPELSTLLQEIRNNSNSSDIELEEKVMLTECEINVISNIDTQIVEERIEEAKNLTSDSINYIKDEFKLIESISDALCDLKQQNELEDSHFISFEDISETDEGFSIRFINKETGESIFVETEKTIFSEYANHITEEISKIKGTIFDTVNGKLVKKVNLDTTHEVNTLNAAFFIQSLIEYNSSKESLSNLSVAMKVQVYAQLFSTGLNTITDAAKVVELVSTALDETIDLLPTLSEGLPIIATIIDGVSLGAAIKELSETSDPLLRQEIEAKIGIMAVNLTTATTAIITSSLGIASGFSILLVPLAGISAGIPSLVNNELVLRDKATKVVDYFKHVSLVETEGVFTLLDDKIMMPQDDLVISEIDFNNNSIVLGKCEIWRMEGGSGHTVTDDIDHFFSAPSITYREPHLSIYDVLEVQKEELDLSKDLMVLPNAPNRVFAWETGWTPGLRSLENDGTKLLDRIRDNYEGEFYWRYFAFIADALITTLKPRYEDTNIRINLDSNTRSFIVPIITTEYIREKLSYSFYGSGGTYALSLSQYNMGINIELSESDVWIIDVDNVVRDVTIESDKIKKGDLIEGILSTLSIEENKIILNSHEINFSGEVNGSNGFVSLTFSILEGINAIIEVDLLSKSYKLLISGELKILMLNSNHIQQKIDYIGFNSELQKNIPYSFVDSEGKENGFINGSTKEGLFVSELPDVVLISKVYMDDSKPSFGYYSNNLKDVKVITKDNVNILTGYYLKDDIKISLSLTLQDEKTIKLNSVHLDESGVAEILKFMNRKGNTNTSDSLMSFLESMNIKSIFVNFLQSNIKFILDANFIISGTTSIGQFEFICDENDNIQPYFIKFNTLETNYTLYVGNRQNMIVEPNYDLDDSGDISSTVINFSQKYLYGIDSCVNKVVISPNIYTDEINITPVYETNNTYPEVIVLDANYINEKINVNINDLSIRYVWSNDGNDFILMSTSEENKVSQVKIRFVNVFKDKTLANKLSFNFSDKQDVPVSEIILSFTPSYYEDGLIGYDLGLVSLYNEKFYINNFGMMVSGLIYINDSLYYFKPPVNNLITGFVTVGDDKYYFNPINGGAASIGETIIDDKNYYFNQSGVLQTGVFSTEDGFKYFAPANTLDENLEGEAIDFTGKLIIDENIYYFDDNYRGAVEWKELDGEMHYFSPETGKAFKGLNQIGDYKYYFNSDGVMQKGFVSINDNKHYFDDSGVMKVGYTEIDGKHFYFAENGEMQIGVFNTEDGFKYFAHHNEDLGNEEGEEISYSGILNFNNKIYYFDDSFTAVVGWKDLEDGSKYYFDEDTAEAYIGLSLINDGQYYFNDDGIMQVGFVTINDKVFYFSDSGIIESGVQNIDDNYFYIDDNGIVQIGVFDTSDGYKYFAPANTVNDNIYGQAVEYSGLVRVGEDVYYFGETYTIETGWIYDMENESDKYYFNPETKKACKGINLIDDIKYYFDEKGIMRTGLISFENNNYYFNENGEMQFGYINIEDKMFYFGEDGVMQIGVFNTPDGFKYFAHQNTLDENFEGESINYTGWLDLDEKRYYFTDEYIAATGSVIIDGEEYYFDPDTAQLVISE",
  "note": "Values joined by “and” are separate entries in the source; they are usually repeats but may differ in a detail not shown here. Equal values may be shown once.",
  "data": [
    {"binder": "KFINIFIHGNKRSIKAI", "note": "[Angie 5]", "values": [
      {"measurement": "other", "result": "40.9 µM and 46.3 µM"}
    ]}
  ]
}
